Test results as given in patent US6579848B1, “Depigmenting activity of agouti signal protein and peptides thereof” (The United States of America as represented by the …, priority 1995, dated 2003).

Tests used:
Format in all cases: cell-based, murine
tyrosinase = test: Northern blotting of tyrosinase RNA in melan-a cells; settings: for RNA level of tyrosinase: 5 days
Method: (§1) These techniques were performed as described previously (Aroca et al., 1993). Briefly, 2.0 μg of mRNA, isolated using a total RNA isolation kit and mRNA purification kit (Promega, Madison, Wis.), were electrophoresed and then blotted to Sure-Blot nylon membranes (Oncor, Gaithersburg, Md.), hybridized with ^32P-labeled probes, dehybridized and rehybridized with other probes again as necessary. TYRS-J, the probe specific for tyrosinase, was kindly provided by Drs. H. Yamamoto and T. Takeuchi, Sendai, Japan and is described in Yamamoto et al Japan J. Genetics Vol 62:271-274, 1987. pMT4, specific for TRP1, was provided by Dr. S. Shibahara, Sendai, Japan and is described in Shibahara, S. et al Nucleic Acid Res. Vol 14:2413-2427, 1986. TRP2a, specific for TRP2 was provided by Dr. I. Jackson, Edinburgh, Scotland and is described in Jackson, I et al. EMBO Vol 11:527-535, 1992. gp100, specific for silver, was provided by Dr. Y. Kawakami, Bethesda, Md. and is described in Kawakami et al PNAS, Vol. 91, 6458-6462, 1994.
(§2) Recombinant agouti protein was purified from baculovirus system by Dr. Michael Ollmann in Dr. Gregory Barsh's laboratory by methods known in the art. 2×10^6 cells were seeded per 15 cm diameter dish. The medium was changed everyday, and fresh agouti protein and/or αMSH added everyday usually at 10 nM. To examine transcriptional regulation, total RNA was isolated and Northern blotting performed by methods described in Example 1. The A26 probe to the MSH-R was provided by Dr. R. Cone and is described in Mountjoy et al. Science 257:1248-1251, 1992. At the translational level, metabolic labeling was used in conjunction with immunoprecipitation as described in Example 1. Western blotting and enzyme assay was used to examine function.
First, it was determined whether the agouti protein had any effect on tyrosinase expression by Northern blotting. After 24 hours, the cells were harvested, total RNA isolated and hybridized with a probe for tyrosinase and detected by a phosphoimager. The activity of each band was measured by phosphoimager and the % control was corrected using GAPDH as a standard. […] It should be noted that in vivo, pheomelanin is synthesized within 24 hours after agouti RNA is apparent. Longer incubation times were also examined. 10 nM of agouti protein was added for 1, 2 or 4 days.
Total RNA was extracted from cells using an RNeasy total RNA isolation kit (QIAGEN, Catsworth, Calif.), following the manufacturer's instructions. 20 μg of total RNA was denatured, electrophoresed through 1.0% agarose gels, and transferred overnight at 23° C. to SureBlot nylon hybridization membranes (Oncor, Gaithersburg, Md.) in the standard manner. […]

TRP1 = test: Northern blotting of TRP1 RNA in melan-a cells; settings: for RNA level of TRP1: 10 nM, 5 days
Method: as §1, §2
(§3) The effects of agouti protein on expression of TRP1, TRP2, and the MSH receptor were examined.
(§4) Total RNA was extracted from cells using an RNeasy total RNA isolation kit (QIAGEN, Catsworth, Calif.), following the manufacturer's instructions. […]

MSH receptor = test: Northern blotting of MSH receptor RNA in melan-a cells; settings: for RNA level of MSH receptor: 10 nM, 5 days
Method: Total RNA was extracted from cells using an RNeasy total RNA isolation kit (QIAGEN, Catsworth, Calif.), following the manufacturer's instructions. 20 μg of total RNA was denatured, electrophoresed through 1.0% agarose gels, and transferred overnight at 23° C. to SureBlot nylon hybridization membranes (Oncor, Gaithersburg, Md.) in the standard manner. Filters were prehybridized for 3 hours at 45° C. with Hybrisol I solution (Oncor, 50% formamide, 10% dextran sulfate, 1% SDS and blocking reagent), and then hybridized with a ^32P-labeled probe. […] A commercially available cDNA probe specific for glyceraldehyde-3-phospho-dehydrogenase (GAPDH) was used to standardize RNA loading on the blots. The cDNA probes were labeled using random primer extension and heated to 100° C. for 10 minutes, then cooled on ice for 10 minutes prior to adding to the hybridization solution. Hybridization was performed with the radiolabeled probes in Hybrisol I (3×10^7 cpm/10 ml) overnight at 45° C. with gentle shaking. Following the incubation, the blots were washed for 10 minutes at 23° C. with 2×SSC/10% SDS, then for 10 minutes with 0.2×SSC/0.5% SDS, and finally for 10 minutes with 0.1×SSC/0.1% SDS. The blots were then exposed in phosphoroimager cassettes at 23° C. for 1 hour and the densities of the bands were scanned using ImageQuant software. The % control for each probe was corrected for initial loading using comparison with the GAPDH standard. […] This was repeated as necessary until no remaining probe could be detected.

TRP2 = test: Northern blotting of TRP2 RNA in melan-a cells
Method: as §1, §2, §3, §4

[1] = 24 hours, different concentrations

| Molecule | RNA level of tyrosinase (tyrosinase; 10 nM) | RNA level of TRP1 (TRP1) | RNA level of MSH receptor (MSH receptor) | increase in TRP2 RNA level (TRP2; 10 nM, 5 days) | expression of tyrosinase (RNA) (tyrosinase; 10 nM, 2 or 4 days incubation) | expression of tyrosinase (RNA, % control corrected using GAPDH) (tyrosinase; 24 hours, 10 nM and 1 nM) | level of TRP1 RNA (TRP1; [1]) | level of RNA for the MSH receptor (MSH receptor; [1]) | RNA level of TRP2 (TRP2; 10 nM, 5 days) | level of TRP2 RNA (TRP2; [1]) |
| --- | --- | --- | --- | --- | --- | --- | --- | --- | --- | --- |
| α-melanocyte stimulating hormone [MSH, reference compound] | almost a twofold increase | no significant increase | no significant increase | 50% |  |  |  |  |  |  |
| agouti protein: Recombinant murine agouti signal protein purified from a baculovirus expression system (protein) MDVTRLLLATLVSFLCFFTVHSHLALEETLGDDRSLRSDSSMNSLDFSSVSIVALNKKSKKISRKEAEKRKRSSKKKASMKKVARPPPPSPCVATRDSCKPPAPACCDPCASCQCRFFGSACTCRVLNPNC | nearly a fivefold decrease | nearly a fivefold decrease | no significant effect |  | complete inhibition by day 2 | significant dose dependent decreases | reduced, but not to the same extent as tyrosinase RNA | no significant effect | nearly a fivefold decrease | reduced, but not to the same extent as tyrosinase RNA |
